Measurements reported in the DeepSol protein solubility set.

Assay: soluble on expression in E. coli; label from the status in PepcDB or PDB records

| Sequence | soluble on expression in E. coli |
| --- | --- |
| MSLGNREILYKNLFYNAELFTCRFPELSAALGLDSEIGIKQFAERIPESYYLEEAKLKETDKKIFTARINGKYLHSKYNPISEAEKNISLDFFEDKKAKSSCVFCGLGLGYAQELYAKKYPKSSLIIIEPDLFVFFLFLQSRPLDDFFMHENLILLLGLYPKDVLDFFESKSFFDTPIFKIQSLIDVSSSWFSEFEALKKRRNEKTNLNKNTLKKFGKLWLKNFLKNIKQTEGLFGINKIENIFASCPALIIAAGPGLDDTINLVKENEDKFIIIAADTAVRACHRHGLKPDFILLMDAQYWNYLHLSDLDISDSILITESSVYPAVFRLKTRAKFLCTSMFPLAQYIEKLIGEKGKLVTGGSVATACWDFARILGCSEIIFAGLDLAFPDFQTHFKGSRFEEDVNAFSNRFFPSETASHLSLYSASPQLKEGYEGKVLSDKRMQMYAWWFESKIAEFPDIKTYNLLPRGLKIPNMPALSMEEFLLKAKASPLSKKIKIEKMSALFNLSSYKKEGSFSSPNLSSALKELSTDLEKTMKLAREGMDICLNLLDSLKTGKPLEDSIIKKVWKTEGHHHHHH | soluble |
| MTKQPPIAKADLQKTQGNRAPAAVKNSDVISFINQPSMKEQLAAALPRHMTAERMIRIATTEIRKVPALGNCDTMSFVSAIVQCSQLGLEPGSALGHAYLLPFGNKNEKSGKKNVQLIIGYRGMIDLARRSGQIASLSARVVREGDEFSFEFGLDEKLIHRPGENEDAPVTHVYAVARLKDGGTQFEVMTRKQIELVRSLSKAGNNGPWVTHWEEMAKKTAIRRLFKYLPVSIEIQRAVSMDEKEPLTIDPADSSVLTGEYSVIDNSEE | soluble |
| MSKLLLVGEPLIRVSPNQFQPLTNACEAQLFFGGSEVNIARTLGGFGLEARLFTALPDNPVGHAFHQFLKQSGVDMSLTAWQGHRVGLYYLENGFGCRASQVYYDRCGSSFSALDKDSLDLAAIFEGISHFHFSGISLALGKKTQDLIEVLVREAKKRDICISFDLNFRSSMIAVADAKRLFSHFAQYADIIFGMEPLLLDSDDFDMFDRKKADTTTIRERLAGLYQRYQLQAIYHTERSNDAQGSNHFKAYAYDRQFYESCEVTTPVLQRVGSGDAFVAGLLYQLLEGNEKQRNLDFAVATASLKCTVAEDQLYHSVQQVEAVLANQRDIQR | not soluble |
| MSLNTQQGLDEIERIAADETVVANVESEAEVKMAETIPVETPPAVVPSVDDSSLYIHRELSQLQFNIRVLEQALDESYPLLERLKFLLIFSSNLDEFFEIRIAGLKKQITFAREQAGADGLLPHQALARISELVHEQVSRQYRILNETLLPELAKHQIRFIRRRHWTLKIKTWVRRFFRDEIAPIITPIGLDPTHPFPLLVNKSLNFIVELEGMDAFGRDSGLAIIPAPRLLPRIIRLPEDVGGEGDNYVFLSSMIHAHADDLFPGMKVKGCYQFRLTRNADLSVDTEDVEDLARALRGELFSRRYGDAVRLEVVDTCPQNLTNYLLKQFGLSESELYKVSGPVNLTRLFSVTGLESHPELQYPPFTPAIPRLLQKKENLFNVLSKLDVLLMHPFESFTPVIDLLRQAAKDPNVLAIKQTLYRSGANSEIVDALVEAARNGKEVTAVIELRARFDEESNLQLASRLQQAGAVVIYGVVGFKTHAKMMLILRREDGELRRYAHLGTGNYHAGNARLYTDYSLLTADVALCEDLHKLFNQLIGMGKTLRMKKLLHAPFTLKKNLLEMINREAAQAALGQPAHIMAKVNSLTDPKVIRALYKASQAGVRIDLVVRGMCCLRPGIPGVSHNIHVRSIIGRFLEHSRIYYFLNGGDEKLYLSSADWMERNLDMRVETCFPVEGKKLVQRVKKELETYLTDNTQAWVLQADGSYQRLSPTGNQNPRNTQATLLEKLAAPVLTAREGHHHHHH | soluble |
| MDMISAFDIFKIGIGPSSSHTVGPMNAGKSFIDRLESSGLLTATSHIVVDLYGSLSLTGKGHATDVAIIMGLAGNSPQDVVIDEIPAFIELVTRSGRLPVTSGAHIVDFPVAKNIIFHPEMLPRHENGMRITAWKGQEELLSKTYYSVGGGFIVEEEHFGLSYDVETPVPYDFHSAGELLKMCDYNGLSISGLMMHNELALRSKAEIDAGFARIWQVMHDGIERGMNTEGVLPGPLNVPRRAVALRRQLVSSDNISNDPMNVIDWINMYALAVSEENAAGGRVVTAPTNGACGIIPAVLAYYDKFRRPVNERSIARYFLAAGAIGALYKMNASISGAEVGCQGEIGVACSMAAAGLTELLGGSPAQVCNAAEIAMEHNLGLTCDPVAGQVQIPCIERNAINAVKAVNAARMAMRRTSAPRVSLDKVIETMYETGKDMNDKYRETSRGGLAIKVVCG | soluble |
| MGSDKIHHHHHHMNTTQELHVIFGTGPLAQAVMRELLARNKRVRMINRSGKADIPSSVEIIASDAYNSENTRAVTTGATVVYQCAQPAYTQWPELFPSLQASIVEGVAANGAKLVVGDNLYMYGPVNGVLREDMPNAATTRKGRVRGQMTEALLDAHRRGIVRVAIGRASDFYGPLVLDSVMGDRIFPSVLTGKPASAIGEIDLPHTYTFIDDFGKALVVLGEEDKALGQIWHVPNAETITTRQFITIAFEEAGYPPKISKMGKFMMRLGGIFIPEARETVEMMYEFDEPFVVNHDKYVQAFGNHATPLREAIRHTLKWYSEHLKTLKT | not soluble |
| MAKKKKEILFCDYYEDWVETYKVGAIEDVTLNKYYVAARQLRDICPKLLMSDFSRKDYQLIMNEYGKTHEKQTAKDFHHHIKAAILDAYHDGLLKSDPTYRAVIKGKEPGKKKLEHHHHHH | soluble |
| MGSDKIHHHHHHMSVQISVVAATLNEIDNIEQFIDGVEGVLKGMEFEIIVVDDNSSDGTKEYLARRMNEDTHVVVIENPYRFGMLRSLKLGIEKAGGEIVLVMDADMQHPPSAIPKLISRIVDGCDIVVGSRYVDGGSAGDRDAFRAALSRGAEFLAHALVPSSRMTSDPMSGFFAFRRDLRHDFAYRQTFATADYGAKILLIILAENRHAKVCDVGYVFQSRMRGKSKIVSGTSFLKRYLAELFEVMKLERRYRHMQ | not soluble |
| SLMLHAQHMPGQPGTPSLVFLHGFSGDCHEWQPVGEQFHGCSRLYIDLPGHGGSAAIPVDGFADVIRLLRATLISYNILKFWLVGYSLGGRVAMMAACQGIPGLCGLVVEGGHPGLQNEQARAERRLSDGRWAERFRHEPLTEVFHDWYQQPVFASLTAQQRQALTALRSQNNGETLAAMLEATSLAVQPDLREALNALAFPFYYLCGERDSKFRALAQEVAATCHVIRNAGHNAHRENPAGVVDSLAQILRL | soluble |
| MALPKPSDGTLPAEVQGRGQRRRLVWTPSQSKALQACFERNPYPGITTRERLAQAIGIPEPRVQILFQNERSCQLRQHWH | soluble |
| EDKTITTLYVGGLGDTITETDLRNHFYQFGEIRTITVVQRQQCAFIQFATRQAAEVAAEKSFNKLIVNGRRLNVKWGR | soluble |
| MAHHHHHHMTENFLIFGLPFLPQCNDTLPSSQFKCLVAEMGPLGQALRPFVVPTLKVGTLDSLIEASDELAKLDPQLENNVEKLIALMEETSQKPRSVVSALRINQTQEMTPAAYIKNFLWSSAQFDTREKIQSLIEKLSQISASIEERIRVLLSEYNETRNRLTAVNRKTQGNLSVKPIRELVASYNQKFQCFVDTEMLVTLFVVVPLASQKEWLETYWSLNEFVCPQSNRVIAEDKECVLNSIVTFRKAMDDVKMICRKKRFTVRDIDGVDDLSVAEVKELNQKAEKERKALYTVLWQQYSLCYVAWVHVKALRVFVESLLKYGLPPRCISVVLQVDGKKEAEIRKKILQIYPNLISPLTNEPPTDTGMLQYEYPYVSLKVTNFQKD | not soluble |
| MGSDKIHHHHHHMNWSQIISLVSAGNYMEVEKILQDYPYIVDMADHLREQKLKVIANLDTYVKRTMDSVEKLGGHAYLAKDKDEARKIIGDLVGEKKTVVFSKTNVAYEIGLREFLQERNNEVWETDLGEYLVQISRGWPTHIVAPALDMTREEAAKAVKKIDPSINENSKIEDIVAAVRKFLMSKYVKADVGITGANAVAADSGSVALVENEGNIRIDTVMPPMHIAVTGIDKIVPTMRDALDEVMVQAAYAGIFPPTYINVTSGPSSTADIELRRVSPATGPKDFHLVLIDNGRLEASKNEDLKEALLCIKCGRCYFSCPIYRTLGKEWISTKSPYNGPTGVMWNYITNKDPWPASYCVHSGGCKEVCPMKINIPEVIKYIKFIGSKQVGK | not soluble |
| MSLSDNVVTSKVGNVTEKELSKELRQQYGESTLYQMMLSKALLDKYKVSDEEAKKKVEEAKDKMGENFKSTLEQLGLKNEDELKEKMKPEIAFEKAIKATVTDKDVKNNYKPEMKVSHILVKDEKTAKEIKEKVNNGEDFAALANQYSEDTGSKEQGGEISGFAPGQTVKEFEEAAYKLDAGQVSDPVKTTYGYHIIKVTDKKELKPFDEVKDKIRKDIEQQRLQDTTGKWKQQVVNDLLKDADIKVNNKEFKDTFKFLEKEGHHHHHH | soluble |
| MSSFVLDFQEIEKTQLSLVGGKGLNLGALSNMQGIQVPEGFCVTTAGYEKAIEQNEELQALLQQLTKLKREERVRIGEISKKIRENIMAVQIPSDVVEAVAHYLSRFGNEHAYAVRSSATAEDLPYASFAGQQDTYLNIIGENAILQHVRKCWASLFTDRAVMYRMQNGFEHNQVSICVVVQKMVFPQASGILFTADPITSNRKVLSIDASFGLGEALVSGLVSADNYKVKEGEIIDKMIATKKLAIYALKEGGTETKQNDPVQQKIQTLSDQQILQLVQIGRQIEAYFGCPQDIEWCLVDHTFYIVQSRPITTLYPIPEENDEGNHVYISVGHQQMMTDAMKPLGLSFFLLTTNAPMRKAGGRLFVDATQQLVLPASRDYLINTLGKSDPLVRDALTTIIERDDFITLLPDEEKEKSASKSKPPVSSQPEIENDPAIVTELIRNSEASLEELKQNMQLKSGVDVFDFILEDIQQLKKVLFNPQSIAVIMAGMNASTWINEKMEQWLGEKNAADMLSQSVQNNITSEMGLALMDVADAIRPYPEVITYLQHVEDDSFLDELVQYKGGEKARDTIVAFLNKYGMRCSGEIDITKTRWSEKPTTIIPMILNNIRDFEAGASKQKFEKGLQEALNKEEELLDRLQHLPKGKQKVEETKRMIRNIRNFIGYREYPKYGMINRYFIYKQALLKEAEQLVQSGVICEVDDIYYLTFEELHEVVRTNKLDYELIQKQKNDYKLYEKLTPPRVMTSDGEIITGKYKRENLPADAIVGLPVSSGVVEGRARVILNMEEANLEEGDILVTAFTDPGWTPLFVSIKGLVTEVGGLMTHGAVIAREYGLPAVVGVENATKRIKDGQRIRVHGTEGYIEML | not soluble |
| MEKDIKRQIQILEIITSEEKWFTTIEISKILRCCNKTIMKDISFIKDFLPEDWHIKIKKGKGVRIYLPYNKHRNEITFLLFRESLTFRILQHLFERETKTIATLAERLYIQVPSILPALKRVENYLKKFGLKLRKKPLRLEGDEVRIMIMYLDLYLKSYNDTEWPFEKLKKEVIFQYLGTLEESLGISLHVVSKRHLSFFIAILLKRKQQGYKVQLNRKFLYFNTETPDYVKIGRIFEKLEREFGVSLTVQDKILLTISIKSSKYVYKDINKEKEESVQYFKEGNLSIYELVKDFINSLEEKLKVDLISDEEFIFALVDYFKRTIYHLQYLCMFERPQKQTIQYMQTEHSETFSAVKEVYTEFVKKNEIADYVSVEEIAKVTMYIEASRLRYTSNYKKVLLVTGESESWAEYLAATLAKRFGDKIQISTVFFAKKSDHDVNADFIISTIPLDLGSTPIICINSIPTERDYTNIQYYLDLQDG | not soluble |
| MKFTIVIPIFNRVQYIPETLDSVIRQTYTDLEIICVDDCSSDRSPVLLQDYAKTDLRIKVLTHAKNKGLYLARKTGVLNASGDYILFLDCDDVLDLHAVEVIYNALCKNSVEVLEYGYHSIHANENTVPDSAITVDKLFSSLVYDRYPRAGTVWNKAYKTELLKNAFSKMSDFHAVMGEDFYESVIIAYYAKSYSSIDDVLVIYNDESGISNTRKNLASIQKDLDSVVAILNGFRFFFESYASEHKEAVLNIESYYIRYVYYNLILLKTNKTDRKMAVDLLKDYFSAEAAAPYFNKTKPAVTRDAVMYKIRAVIKRYISKKLREMIKKIIRRYDKKPQQK | not soluble |
